Results on three molecules are retold here after patent US20090148447A1 (TRUBION PHARMACEUTICALS, published 2009).

Assay [1] deals with low-affinity CD16 (CD16lo). Description: flow cytometry, CD16lo bound to sample on Ramos cells, goat anti-mouse-PE; sample 0.011 ug/ml. A general note: In flow cytometry, cells or beads pass a laser one at a time.
In assay [2] the target is low-affinity CD16 (CD16lo). Description: flow cytometry, CD16lo bound to sample on Ramos cells, goat anti-mouse-PE; sample 0.89 ug/ml.
The target of assay [3] is low-affinity CD16 (CD16lo). Description: flow cytometry, CD16lo bound to sample on Ramos cells, goat anti-mouse-PE; sample 2.67 ug/ml.
Assay [4] concerns the target low-affinity CD16 (CD16lo). Description: flow cytometry, CD16lo bound to sample on Ramos cells, goat anti-mouse-PE; sample 0.3 ug/ml.
Assay [5] addresses low-affinity CD16 (CD16lo). Description: flow cytometry, CD16lo bound to sample on Ramos cells, goat anti-mouse-PE; sample 0.033 ug/ml.
Assay [6] deals with low-affinity CD16 (CD16lo). Put plainly: flow cytometry, CD16lo bound to sample on Ramos cells, goat anti-mouse-PE; sample 24 ug/ml.
Assay [7] deals with low-affinity CD16 (CD16lo). Put plainly: flow cytometry, CD16lo bound to sample on Ramos cells, goat anti-mouse-PE; sample 0.1 ug/ml.
Assay [8] addresses low-affinity CD16 (CD16lo). Put plainly: flow cytometry, CD16lo bound to sample on Ramos cells, goat anti-mouse-PE; sample 8 ug/ml.
The target in assay [9] is T1, CD20 (UniProt P11836 1-297, limits assumed).
T1 construct: whole, on cells; also called CD20 on Wil2-S cells
T1 sequence (looked up): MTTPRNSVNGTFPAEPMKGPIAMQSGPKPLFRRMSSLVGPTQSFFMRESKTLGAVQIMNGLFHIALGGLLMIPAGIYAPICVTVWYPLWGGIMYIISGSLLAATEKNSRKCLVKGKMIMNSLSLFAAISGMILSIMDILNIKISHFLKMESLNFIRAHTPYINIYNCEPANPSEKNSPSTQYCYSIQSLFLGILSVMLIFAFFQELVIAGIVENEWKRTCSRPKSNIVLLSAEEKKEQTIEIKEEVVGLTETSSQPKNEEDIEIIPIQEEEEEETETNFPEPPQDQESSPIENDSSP
Description: flow cytometry on Wil2-S B-cells, PE goat anti-human IgG. How it is done: For the Wil2-S B-cell binding study, 100 ug/ml of PIMS was used. […] Binding was detected using a goat anti-human IgG (gamma specific) conjugated to phycoerythrin (PE) (Jackson Immunoresearch # 109-116-098) at 1:100 dilution in FACS buffer. Results were analyzed by one-color flow cytometry on a FACsCalibur using CellQuest software. In addition to assessing the binding of anti-CD20 PIMS to WIL2-S cells, the binding of anti-CD20 SMIPs to Wil2-S cells expressing CD20 on their surface was also assessed.

Sequence of low-affinity CD16 (CD16lo) (P08637 17-208): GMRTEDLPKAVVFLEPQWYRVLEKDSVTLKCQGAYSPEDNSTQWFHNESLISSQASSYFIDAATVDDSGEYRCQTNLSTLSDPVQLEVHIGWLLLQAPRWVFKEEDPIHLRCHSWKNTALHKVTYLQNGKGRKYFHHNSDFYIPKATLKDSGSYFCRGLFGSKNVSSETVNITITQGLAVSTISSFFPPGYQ

TRU-016 (an anti-CD37 SMIP) (Fc fusion): the Geo MFI in assay [1] worked out at 7.41; in assay [2], 214; in [3], 229; in assay [4], 143; in [5] it was 21.8; in [6] it was 158. The Geo MFI in assay [7] worked out at 57.5; in assay [8] it was 228.

B1: 2Lm20-4HL12 (an HL anti-CD20 SMIP with a 12-amino-acid gly4ser linker) (Fc fusion)
chain: QVQLVQSGAESKKPGASVKVSCKASGYTFTSYNMHWVRQAPGQGLEWMGAIYPGNGDTSYNQKFKGRVTMTRDTSTSTVYMELSSLRSEDTAVYYCARSYYSNSYWYFDLWGRGTLVTVSSGGGGSGGGGSASEIVLTQSPATLSLSPGERATLSCRASSSVSYIVWYQQKPGQAPRLLIYAPSNLASGIPARFSGSGSGTDFTLTISSLEPEDFAVYYCQQWSFNPPTFGQGTKVEIK
notes: also called DNE078; not shown: The hinge and CH2CH3 of this SMIP are not specified
For B1, in assay [9], the binding result was “binds”.

B2: 2Lm20-4HL17 (an HL anti-CD20 SMIP with a 17-amino-acid gly4ser linker) (Fc fusion)
chain: QVQLVQSGAESKKPGASVKVSCKASGYTFTSYNMHWVRQAPGQGLEWMGAIYPGNGDTSYNQKFKGRVTMTRDTSTSTVYMELSSLRSEDTAVYYCARSYYSNSYWYFDLWGRGTLVTVSSGGGGSGGGGSGGGGSASEIVLTQSPATLSLSPGERATLSCRASSSVSYIVWYQQKPGQAPRLLIYAPSNLASGIPARFSGSGSGTDFTLTISSLEPEDFAVYYCQQWSFNPPTFGQGTKVEIK
notes: also called DNE079; not shown: The hinge and CH2CH3 of this SMIP are not specified
With B2, in assay [9], the binding result is “binds”.
